According to patent publication US12643935B2, “PD-L1 binding peptides” (UNIVERSITY OF SOUTHERN CALIFORNIA, priority 2020, dated 2026):
“Also recorded” adds a separate entry of the source.

Legend:
[1] = molecular target: T1, hPD-L1 (Homo sapiens, UniProt Q9NZQ7); test: Surface plasmon resonance of mPD-1 on immobilized hPD-L1; conditions: SPR, 25° C., one-site saturation binding model; read-out: dissociation constant (KD) hPD-L1/mPD-1
T1 construct: designed from A18 to T239 with a methionine added to the N-terminus; hexahistidine tag (C); made in house
Protocol: In order to confirm that the expressed hPD-L1 was correctly folded, binding to mPD-1 was measured by SPR. The dissociation constant (KD) between recombinant hPD-L1 and PD-1 was determined to be 3.2±0.3 μM using a one-site saturation binding model (FIG. 7).
SPR analysis was performed on a Biacore T-100 at the USC Nanobiophysics core. E. coli expressed biotinylated hPD-L1 was immobilized onto a sensor chip SA (GE Healthcare Life Sciences) and different concentrations (from 1.5×10^−7 to 2.9×10^−5 M) of mPD-1 was flowed over the chip at a rate of 50 μL/min for 60 seconds in a buffer consisting of 50 mM HEPES-KOH pH 7.5, 150 mM NaCl, 0.05% (v/v) Tween-20 and 1 mg/mL BSA at 25° C. The response values were fit to a one-site saturation binding model in GraphPad Prism to obtain an equilibrium binding constant.

[2] = molecular target: T1, hPD-L1; test: Radioactive competition assay: [35S]-SPAM binding to immobilized hPD-L1 with competitor; conditions: 5 μM competitor
Protocol: For radioactive competition assays, hPD-L1-immobilized streptavidin agarose beads were preincubated with the desired competitor for one hour at 4° C. followed by addition of the radiolabeled peptide for 1 h. The ratio of the counts remaining on the beads to the total counts added to the binding reaction was calculated to determine the percent bound.

Kd [1]: ~3000 nM
B1: mPD-1: murine variant of PD-1, recombinant extracellular domain with HA tag and His tag (protein)
chain: MALEVPNGPWRSLTFYPAWLTVSEGANATFTCSLSNWSEDLMLNWNRLSPSNQTEKQAAFSNGLSQPVQDARFQIIQLPNRHDFHMNILDTRRNDSGIYLCGAISLHPKAKIEESPGAELVVTERILETSTRYPSGGYPYDVPDYALEHHHHHH
modifications: HA tag and His tag
notes: murine variant of PD-1, recombinant extracellular domain with HA tag and His tag
effect on [35S]-SPAM binding to immobilized hPD-L1 [2]: significantly inhibited; also recorded: disrupted
